Biological target: T1, human VEGF (human, UniProt P15692 207-395, biotinylated)
T1 construct: also called hVEGF; hVEGF-biotin
T1 sequence: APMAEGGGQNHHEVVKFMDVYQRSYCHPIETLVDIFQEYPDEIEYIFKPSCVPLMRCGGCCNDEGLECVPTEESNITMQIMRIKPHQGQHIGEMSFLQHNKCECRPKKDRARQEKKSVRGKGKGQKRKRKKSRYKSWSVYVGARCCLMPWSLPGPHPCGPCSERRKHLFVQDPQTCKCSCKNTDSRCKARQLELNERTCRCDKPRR
Assay: SPR (Biacore), ligand hVEGF-biotin, 25 C

- Kd: 5.64 pM
- koff: 0.000172 s⁻¹
- kon: 3.05e+07 M⁻¹ s⁻¹
B1: NVS1j (Fab)
heavy: EVQLVESGGGLVQPGGSLRLSCTASGFSLTDYYYMTWVRQAPGKGLEWVGFIDPDDDPYYATWAKGRFTISRDNSKNTLYLQMNSLRAEDTAVYYCAGGDHNSGWGLDIWGQGTLVTVSSASTKGPSVFPLAPSSKSTSGGTAALGCLVKDYFPEPVTVSWNSGALTSGVHTFPAVLQSSGLYSLSSVVTVPSSSLGTQTYICNVNHKPSNTKVDKRVEPKSCGS
light: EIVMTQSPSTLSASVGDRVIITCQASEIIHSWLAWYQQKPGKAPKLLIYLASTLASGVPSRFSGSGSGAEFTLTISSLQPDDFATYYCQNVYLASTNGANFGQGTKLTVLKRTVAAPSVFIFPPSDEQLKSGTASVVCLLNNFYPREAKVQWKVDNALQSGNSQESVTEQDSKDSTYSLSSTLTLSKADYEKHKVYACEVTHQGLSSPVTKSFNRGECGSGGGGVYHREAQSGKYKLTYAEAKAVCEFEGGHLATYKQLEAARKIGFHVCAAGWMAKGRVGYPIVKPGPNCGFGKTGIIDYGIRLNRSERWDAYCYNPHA
notes: Tag on the C-terminus of the light chain of NVS4; The heavy chain number is printed as '[9]215'
